Consider two molecules from article PMC7203112, “Structural basis for the complex DNA binding behavior of the plant stem cell regulator WUSCHEL”.

One series has as its target T1, WUS-HD F101A (Arabidopsis thaliana, UniProt Q9SB92 34-103, F101A).
T1 sequence: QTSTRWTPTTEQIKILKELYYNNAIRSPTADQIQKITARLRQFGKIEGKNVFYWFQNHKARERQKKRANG
In words: EMSA; predominantly monomer; probe called 2xTGAA; MST: 20 mM Tris-HCl pH 8.0, 75 mM NaCl, 10 mM MgCl2, 0.05% Tween-20, 20 C, 50 nM YFP-WUS; ITC: same without Tween, 20 C; EMSA: 10 mM Tris-HCl pH 8.0, 75 mM NaCl, 50 ug/ml poly(dI-dC), 1 mM EDTA, 1 mM DTT, 5% glycerol. The settings on record: protein: recombinant; tags: none after TEV cleavage; label: Cy5; blunt.

Series [1] concerns the target T2, WUS-HD S36R (Arabidopsis thaliana, UniProt Q9SB92 34-103, S36R).
T2 sequence: T1 sequence with S3R, A68F
In words: EMSA; MST: 20 mM Tris-HCl pH 8.0, 75 mM NaCl, 10 mM MgCl2, 0.05% Tween-20, 20 C, 50 nM YFP-WUS; ITC: same without Tween, 20 C; EMSA: 10 mM Tris-HCl pH 8.0, 75 mM NaCl, 50 ug/ml poly(dI-dC), 1 mM EDTA, 1 mM DTT, 5% glycerol. To be noted: protein: recombinant; tags: none after TEV cleavage; label: Cy5; blunt. (Mobility shift assays separate free from complexed probe on a gel.)

In another series the target is T3, MBP-WUS-FL (Arabidopsis thaliana, UniProt Q9SB92 1-292).
T3 sequence: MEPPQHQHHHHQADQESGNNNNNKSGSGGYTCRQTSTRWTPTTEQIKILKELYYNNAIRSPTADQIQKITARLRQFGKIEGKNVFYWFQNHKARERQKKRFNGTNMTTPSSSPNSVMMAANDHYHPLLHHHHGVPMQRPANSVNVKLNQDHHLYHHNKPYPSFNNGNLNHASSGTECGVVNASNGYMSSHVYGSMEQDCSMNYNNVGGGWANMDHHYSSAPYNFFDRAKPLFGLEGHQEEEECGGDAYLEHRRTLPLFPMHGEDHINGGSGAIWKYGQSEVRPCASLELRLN
The description is as above. The settings on record: protein: recombinant; tags: N-terminal His6-MBP; chain copies: 2; label: Cy5; blunt.

Series [2] has as its target T4, WUS-HD T35R (Arabidopsis thaliana, UniProt Q9SB92 34-103, T35R).
T4 sequence: T1 sequence with T2R, A68F
The series is described as above. To be noted: protein: recombinant; tags: none after TEV cleavage; label: Cy5; blunt.

The target of a further series is T5, WUS-HD RRK (Arabidopsis thaliana, UniProt Q9SB92 34-103, T35R;S36R;R94K).
T5 sequence: T1 sequence with T2R, S3R, R61K, A68F
Description: EMSA; similar to T35R and S36R; MST: 20 mM Tris-HCl pH 8.0, 75 mM NaCl, 10 mM MgCl2, 0.05% Tween-20, 20 C, 50 nM YFP-WUS; ITC: same without Tween, 20 C; EMSA: 10 mM Tris-HCl pH 8.0, 75 mM NaCl, 50 ug/ml poly(dI-dC), 1 mM EDTA, 1 mM DTT, 5% glycerol. The settings on record: protein: recombinant; tags: none after TEV cleavage; label: Cy5; blunt.

The target of series [3] is T2, WUS-HD S36R. In words: EMSA; predominantly monomer; MST: 20 mM Tris-HCl pH 8.0, 75 mM NaCl, 10 mM MgCl2, 0.05% Tween-20, 20 C, 50 nM YFP-WUS; ITC: same without Tween, 20 C; EMSA: 10 mM Tris-HCl pH 8.0, 75 mM NaCl, 50 ug/ml poly(dI-dC), 1 mM EDTA, 1 mM DTT, 5% glycerol. The settings on record: protein: recombinant; tags: none after TEV cleavage; label: Cy5; blunt.
Series [4] deals with T4, WUS-HD T35R. Described as above. To be noted: protein: recombinant; tags: none after TEV cleavage; label: Cy5; blunt.
A further series addresses T6, WUS-HD R94K (Arabidopsis thaliana, UniProt Q9SB92 34-103, R94K).
T6 sequence: T1 sequence with R61K, A68F
In words: EMSA; like wt; MST: 20 mM Tris-HCl pH 8.0, 75 mM NaCl, 10 mM MgCl2, 0.05% Tween-20, 20 C, 50 nM YFP-WUS; ITC: same without Tween, 20 C; EMSA: 10 mM Tris-HCl pH 8.0, 75 mM NaCl, 50 ug/ml poly(dI-dC), 1 mM EDTA, 1 mM DTT, 5% glycerol. To be noted: protein: recombinant; tags: none after TEV cleavage; label: Cy5; blunt.

Changes are numbered by the printed parent chain.

B1: f_TGAA (dsDNA)
DNA 1: CATCGTCGTTCATTCAATGGG
DNA 2: CCCATTGAATGAACGACGATG
Broadly, the Kd is the free concentration of one partner at which half of the binding sites on the other are occupied at equilibrium, for simple one-to-one binding. Take B1: the binding result with WUS-HD F101A, with WUS-HD S36R [1] and with WUS-HD T35R [2] was “binds” each time. In the series with MBP-WUS-FL, the Kd amounted to 360 ± 60 nM.

B2: f_TAAT (dsDNA)
DNA 1: CAATGTGTTAATGGGTTGTT
DNA 2: AACAACCCATTAACACATTG
As to B2, the binding result with WUS-HD RRK, in the series with WUS-HD S36R [3], with WUS-HD T35R [4] and with WUS-HD R94K was “binds” in each case. Further, in the series with MBP-WUS-FL, the Kd was 3150 ± 260 nM.
